Assay results: PMC3087822 (Nature structural & molecular biology, 2011)

Assays:
[1] = biological target: rat Munc13-1(859–1407,1453–1531) fragment (MUN*) (rat) (UniProt Q62768); assay: NMR titration
[2] = biological target: cytoplasmic domain (residues 2–253) of rat syntaxin-1A (rat, UniProt P32851 2-253); assay: SEC

Munc18-1–SNARE complex assembly (Munc18-1 plus SNARE complex as titrated on 15N-MUN*) (from UniProt P32851;P63045;P60880)
Kd [1]: 13 µM

B1: human SNAP25 (residues 11–82) (domain or fragment)
chain: LEEMQRRADQLADESLESTRRMLQLVEESKDAGIRTLVMLDEQGEQLERIEEGMDQINKDMKEAEKNLTDLG
binding result [2]: binds
